# Results reported in article PMC3228830, “Targeted Proteolysis of Plectin Isoform 1a Accounts for Hemidesmosome Dysfunction in Mice Mimicking the Dominant Skin Blistering Disease EBS-Ogna” (PLoS Genetics, 2011).
# B1: His-tagged wild-type plectin rod domain (pNV10) (domain or fragment)
# chain: IKFISETLRRMEEEERLAEQQRAEERERLAEVEAALEKQRQLAEAHAQAKAQAELEAQELQRRMQEEVARREEAAVDAQQQKRSIQEELQHLRQSSEAEIQAKAQQVEAAERSRMRIEEEIRVVRLQLETTERQRGGAEGELQALRARAEEAEAQKRQAQEEAERLRRQVQDESQRKRQAEAELALRVKAEAEAAREKQRALQALDELRLQAEEAERRLRQAEAERARQVQVALETAQRSAEVELQSKRASFAEKTAQLERTLQEEHVTVAQLREEAERRAQQQAEAERAREEAERELERWQLKANEALRLRLQAEEVAQQKSLAQADAEKQKEEAEREARRRGKAEEQAVRQRELAEQELEKQRQLAEGTAQQRLAAEQELIRLRAETEQGEQQRQLLEEELARLQHEATAATQKRQELEAELAKVRAEMEVLLASKARAEEESRSTSEKSKQRLEAEAGRFRELAEEAARLRALAEEAKRQRQLAEEDAARQRAEAERVLTEKLAAISEATRLKTEAEIALKEKEAENERLRRLAEDEAFQRRRLEEQAALHKADIEERLAQLRKASESELERQKGLVEDTLRQRRQVEEEIMALKVSFEKAAAGKAELELELGRIRSNAEDTMRSKEQAELEAARQRQLAAEEEQRRREAEERVQRSLAAEEEAARQRKVALEEVERLKAKVEEARRLRERAEQESARQLQLAQEAAQKRLQAEEKAHAFVVQQREEELQQTLQQEQNMLDRLRSEAEAARRAAEEAEEAREQAEREAAQSRKQVEEAERLKQSAEEQAQAQAQAQAAAEKLRKEAEQEAARRAQAEQAALKQKQAADAEMEKHKKFAEQTLRQKAQVEQELTTLRLQLEETDHQKSILDEELQRLKAEVTEAARQRSQVEEELFSVRVQMEELGKLKARIEAENRALILRDKDNTQRFLEEEAEKMKQVAEEAARLSVAAQEAARLRQLAEEDLAQQRALAEKMLKEKMQAVQEATRLKAEAELLQQQKELAQEQARRLQEDKEQMAQQLVEETQGFQRTLEAERQRQLEMSAEAERLKLRMAEMSRAQARAEEDAQRFRKQAEEIGEKLHRTELATQEKVTLVQTLEIQRQQSDHDAERLREAIAELEREKEKLKQEAKLLQLKSEEMQTVQQEQILQETQALQKSFLSEKDSLLQRERFIEQEKAKLEQLFQDEVAKAKQLREEQQRQQQQMEQEKQELMASMEEARRRQREAEEGVRRKQEELQHLEQQRQQQEKLLAEENQRLRERLQRLEEEHRAALAHSEIATT
# Target: the molecule itself
# Assay: SEC-MALS; Superose 6 10/300 GL column, 0.5 ml/min, protein 2 mg/ml, load 75 ul
protein,measurement,value
B1,stoichiometry N,2
